Our source for the normalised SPOT signal, Boehringer light units (BLU); mean over the file's lines of this peptide values is paper PMC314469, “Protein Interaction Networks by Proteome Peptide Scanning” (PLoS Biology, 2004).

For this assay, the target named is Sho1 SH3 (SHO1_YEAST), P40073. In words: SPOT array.
Sho1 SH3 (SHO1_YEAST), P40073, sequence (P40073 295-366): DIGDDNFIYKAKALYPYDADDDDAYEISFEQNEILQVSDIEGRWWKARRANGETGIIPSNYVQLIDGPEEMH
With LLPPTDPFRRKHEQ [63-76 ribosomal protein (weak similarity)], the normalised SPOT signal, Boehringer light units (BLU); mean over the file's lines of this peptide was 155.
With LSLPRLPNKHHWPL [116-129 Hypothetical ORF] the figure was 2570.
With LPVPPPPVRPSISF [239-252 RNA polymerase II large subunit] the figure was 172; with KKLPTGPSKKRQRK [1280-1293 transcriptional regulator], 203.
For KFHPPEPYKGKGIY [187-200 Mitochondrial ribosomal protein MRPL6 (YmL6)] the value was 237; for KPDPESPSKLRHYE [851-864 involved in cell wall biogenesis], 216; for KISPSAPSKDSFTK [350-363 nuclear pore protein], 79.6.
For LTSPKNPIKSVTKF [569-582 translation termination factor eRF3], the normalised SPOT signal, Boehringer light units (BLU); mean over the file's lines of this peptide amounted to 148.
Consider LIPPGFPTKNYPPG [185-198 Hypothetical ORF], for which the normalised SPOT signal, Boehringer light units (BLU); mean over the file's lines of this peptide is 80.2.
For KSFPPPPLKPGQKT [84-97 Hypothetical ORF] the value was 85.4; for LRLPEIPPKGDFDV [1327-1340 mitohcondrial RNA polymerase], 977.
For LPVPQLPPKLLVYP [17-30 RNA polymerase II-associated protein] the value was 16.2; for LRDPVIPIKLAAEK [2564-2577 translational activator of GCN4 through activation of GCN2 in response to starvation], 122.
As to LDDPFTPPRWLHHI, the normalised SPOT signal, Boehringer light units (BLU); mean over the file's lines of this peptide turned out to be 93.
For LPPPRSPNRPTLSD [363-376 Hypothetical ORF] the value was 91.7.
For LRKPRAPMRNVIIT [449-462 cytochrome oxidase assembly factor] the value was 184; for KNLPTIPIRLSGID [143-156 Hypothetical ORF], 31800; for KKDPFPPPKDLLVQ [421-434 110 kDa subunit of the centromere binding factor CBF3], 64.6.
With LSIPDLPLRIHNQT the figure was 102; with LMPPDSPPRMTENT [1790-1803 "RAP1-interacting factor, involved in establishment of repressed chromatin"], 121.
Molecule LVTPEEPAKNKSER registered a normalised SPOT signal, Boehringer light units (BLU); mean over the file's lines of this peptide of 102.
With LLKPETPSKRLVIR [249-262 kinesin-related protein involved in mitosis] the figure was 290.
For ITLPRRPAKKIQLG [41-54 Mitochondrial ribosomal protein MRPL36 (YmL36)] the value was 281; for LVQPNVPEKHNMST [144-157 Hypothetical ORF], 182.
For LDYPKAPIKLTMKS [160-173 Hypothetical ORF] the value was 175.
The molecule LSTPSAPAKINNYS [605-618 Hypothetical ORF] gave a normalised SPOT signal, Boehringer light units (BLU); mean over the file's lines of this peptide of 67.
For KRTPKIPEKDVKSD [223-236 Hypothetical ORF] the value was 3960.
With LRRPIFPGRDYRHQ [218-231 cdc2+/CDC28 related kinase with positive role in conjugation] the figure was 112.
With IVNPFIPRRPYSNV [859-872 Hypothetical ORF] the figure was 530; with KFIPNKPYRQFNTW [339-352 gamma-aminobutyrate (GABA) transaminase (4-aminobutyrate aminotransferase)], 60.6.
The molecule KLRPDLPVKNFVVK [641-654 subunit of assimilatory sulfite reductase] had a normalised SPOT signal, Boehringer light units (BLU); mean over the file's lines of this peptide of 2110.
For LAPPLSPTKPSPLH [253-266 Hypothetical ORF] the value was 106; for KYDPDNPNKDKLGT, 159; for LSSPSLPPKVNATN [325-338 Guanosine diphosphatase of Golgi membrane], 88.
As to LNSPDLPERTKLRN [445-458 Septin homolog], the normalised SPOT signal, Boehringer light units (BLU); mean over the file's lines of this peptide was determined as 110.
With LPPPIIPLRKYGHN [693-706 Pho85 kinase inhibitor] the figure was 109; with LIDPSTPDKAAKKD, 103; with KDHPYDPEKDSVLK [97-110 vacuolar ATPase V1 domain subunit F (14 kDa)], 25.5.
For KWEPSTPQRNGPIL [158-171 Hypothetical ORF] the value was 175; for KKDPNAPKRRLSAY [21-34 11-kDa nonhistone chromosomal protein], 152.
For LHGPFKPVKSSNGE [25-38 Hypothetical ORF] the value was 61.6; for LVQPVVPDKVFSFR [368-381 Hypothetical ORF], 46.1; for KLEPENPQKPSNTH [238-251 Hypothetical ORF], 94.4.
As for KKYPRKPKKNLNLG [336-349 Hypothetical ORF], the normalised SPOT signal, Boehringer light units (BLU); mean over the file's lines of this peptide worked out at 224.
With LIMPIYPYRLVSTI [525-538 potential membrane glycoprotein with strong similarity to Vth2 and Pep1/Vps10] the figure was 338.
With LTLPFGPVKSIWLS [189-202 glucosyltransferase] the figure was 96.7.
With LPAPHRPEKYKERF [67-80 Hypothetical ORF] the figure was 173; with KSSPWSPYKVEKVL [161-174 Mitotic spindle protein involved in chromosome segregation.], 137.
Take LQIPPLPLKLLTPV [307-320 encodes the cytoplasmic trifunctional enzyme C1-tetrahydrofolate synthase]: the normalised SPOT signal, Boehringer light units (BLU); mean over the file's lines of this peptide was 48.1.
With LRSPNTPRRLRKTL [198-211;312-325;376-389;96-109 Hypothetical ORF;Y'-helicase protein 1] the figure was 200; with KNLPLNPSKKLEGK [313-326 Hypothetical ORF], 206; with LSKPSKPLKEIRFD [101-114 Hypothetical ORF], 477.
For MALPRTPLKTSTEE [276-289 Small regulatory subunit of Acetolactate synthase] the value was 1100; for KIMPPTPAKKVEFI [312-325 putative GTP-exchange protein], 1220; for ISTPPPPPKMAIPA [390-403 " type II PI(4)P5-kinase (PIP4,5 kinase) similar to human PIP5K-II"], 56.4.
